According to patent US20200325237A1 (AVIDITY BIOSCIENCES, published 2020):
Residue numbers refer to the chain shown, from its start.

T1: TfR2 (transferrin receptor 2) (UniProt Q9UP52 105-801, limits assumed)
T1 sequence (looked up): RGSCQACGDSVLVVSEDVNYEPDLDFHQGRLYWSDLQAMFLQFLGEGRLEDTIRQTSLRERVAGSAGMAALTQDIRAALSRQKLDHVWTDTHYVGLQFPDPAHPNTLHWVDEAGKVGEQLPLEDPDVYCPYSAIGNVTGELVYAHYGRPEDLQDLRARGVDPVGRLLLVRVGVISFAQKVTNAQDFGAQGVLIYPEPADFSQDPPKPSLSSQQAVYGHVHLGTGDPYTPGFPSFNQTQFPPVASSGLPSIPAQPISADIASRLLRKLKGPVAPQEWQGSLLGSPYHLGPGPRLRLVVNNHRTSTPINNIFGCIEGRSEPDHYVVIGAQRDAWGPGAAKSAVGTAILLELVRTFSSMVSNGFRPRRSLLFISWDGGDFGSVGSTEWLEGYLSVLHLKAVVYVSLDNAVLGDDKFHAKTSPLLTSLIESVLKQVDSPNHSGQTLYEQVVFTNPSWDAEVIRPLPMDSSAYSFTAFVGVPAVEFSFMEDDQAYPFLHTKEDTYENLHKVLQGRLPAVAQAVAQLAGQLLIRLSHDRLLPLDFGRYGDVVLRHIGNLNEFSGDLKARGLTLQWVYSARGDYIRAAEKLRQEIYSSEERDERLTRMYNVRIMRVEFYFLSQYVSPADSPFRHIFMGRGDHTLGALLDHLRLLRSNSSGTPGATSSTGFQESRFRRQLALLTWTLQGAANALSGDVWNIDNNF

B1: 13E4-Variant 9ii (antibody, human IgG1, kappa, L234A L235A)
heavy: QVQLVQSGAEVKKPGASVKVSCKASGYTFTNYWMHWVRQAPGQGLEWMGEINPINGRSNYAQKFQGRVTLTVDTSISTAYMELSRLRSDDTAVYYCARGTRAMHYWGQGTLVTVSSASTKGPSVFPLAPSSKSTSGGTAALGCLVKDYFPEPVTVSWNSGALTSGVHTFPAVLQSSGLYSLSSVVTVPSSSLGTQTYICNVNHKPSNTKVDKRVEPKSCDKTHTCPPCPAPEAAGGPSVFLFPPKPKDTLMISRTPEVTCVVVDVSHEDPEVKFNWYVDGVEVHNAKTKPREEQYNSTYRVVSVLTVLHQDWLNGKEYKCGVSNKALPAPIEKTISKAKGQPREPQVYTLPPSREEMTKNQVSLTCLVKGFYPSDIAVEWESNGQPENNYKTTPPVLDSDGSFFLYSKLTVDKSRWQQGNVFSCSVMHEALHNHYTQKSLSLSPG
light: DIQMTQSPSSLSASVGDRVTITCRTSENIYNNLAWYQQKPGKAPKLLIYAATNLAEGVPSRFSGSGSGTDYTLTISSLQPEDFATYYCQHFWGTPLTFGGGTKVEIKRTVAAPSVFIFPPSDEQLKSGTASVVCLLNNFYPREAKVQWKVDNALQSGNSQESVTEQDSKDSTYSLSSTLTLSKADYEKHKVYACEVTHQGLSSPVTKSFNRGEC
notes: Humanized hIgG1 with Fc mutations; also called hIgG1 TfR-Var9ii
B2: 13E4-Variant 9iii (antibody, human IgG1, kappa, L234A L235A)
heavy: B1 heavy with G321K, L327R
light: B1 light
notes: Humanized hIgG1 with Fc mutations; also called hIgG1 TfR-Var9iii
B3: 13E4-Variant 15i (antibody, human IgG1, kappa, L234A L235A)
heavy: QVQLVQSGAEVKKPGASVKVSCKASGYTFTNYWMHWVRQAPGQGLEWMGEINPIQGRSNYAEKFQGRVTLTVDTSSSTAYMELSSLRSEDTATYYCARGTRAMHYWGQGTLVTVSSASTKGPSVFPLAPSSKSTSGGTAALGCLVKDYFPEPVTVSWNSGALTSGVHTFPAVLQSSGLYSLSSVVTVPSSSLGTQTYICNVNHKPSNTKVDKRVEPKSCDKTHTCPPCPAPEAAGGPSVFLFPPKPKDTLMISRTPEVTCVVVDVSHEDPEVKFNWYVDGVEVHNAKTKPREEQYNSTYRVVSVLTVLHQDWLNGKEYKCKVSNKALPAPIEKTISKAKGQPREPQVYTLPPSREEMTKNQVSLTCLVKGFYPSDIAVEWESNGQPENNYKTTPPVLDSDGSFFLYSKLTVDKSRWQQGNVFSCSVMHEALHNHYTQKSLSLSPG
light: B1 light with N31S, A51G, E56D, T85N
notes: Humanized hIgG1 with Fc mutations; also called hIgG1 TfR-Var15i
B4: 13E4-Variant 15ii (antibody, human IgG1, kappa, L234A L235A)
heavy: B1 heavy with N55Q, Q62E, I76S, R85S, D89E, V93T
light: B1 light with N31S, A51G, E56D, T85N
notes: Humanized hIgG1 with Fc mutations; also called hIgG1 TfR-Var15ii

These binders were tested against T2, hTfR (human transferrin receptor, source and construct not stated) (human, UniProt P02786 89-760, limits assumed) (assay: SPR (BioRad ProteOn XPR36), mAb captured on Protein A, hTfR as analyte, 25 C).
Method: The binding kinetics of nine exemplary humanized anti-TfR antibodies and the parent chimeric antibody were characterized. Studies were run on a BioRad ProteOn XPR36 optical biosensor using a GLM sensor chip coated with Protein A for mAb capture. Running buffer included 10 mM EPES, 150 mM NaCl, pH 7.4 with 0.05 tween-20 with 0.2 mg/ml BSA. Data were collected at 25 degrees C. All mAbs were diluted into running buffer to 2 ug/ml based on the stock concentration provided. Each was then captured for 40 seconds over a Protein A surface.
hTfR (100 ug) was dissolved into […] of water to yield a 4.3 uM stock concentration. hTfR was dilted to 43 nM as the highest concentration and tested in a 3 fold dilution series. hTfR was injected at 200 ul/min for 2 minutes followed by a one-hour dissociation phase.

T2 sequence (P02786 89-760 limits assumed): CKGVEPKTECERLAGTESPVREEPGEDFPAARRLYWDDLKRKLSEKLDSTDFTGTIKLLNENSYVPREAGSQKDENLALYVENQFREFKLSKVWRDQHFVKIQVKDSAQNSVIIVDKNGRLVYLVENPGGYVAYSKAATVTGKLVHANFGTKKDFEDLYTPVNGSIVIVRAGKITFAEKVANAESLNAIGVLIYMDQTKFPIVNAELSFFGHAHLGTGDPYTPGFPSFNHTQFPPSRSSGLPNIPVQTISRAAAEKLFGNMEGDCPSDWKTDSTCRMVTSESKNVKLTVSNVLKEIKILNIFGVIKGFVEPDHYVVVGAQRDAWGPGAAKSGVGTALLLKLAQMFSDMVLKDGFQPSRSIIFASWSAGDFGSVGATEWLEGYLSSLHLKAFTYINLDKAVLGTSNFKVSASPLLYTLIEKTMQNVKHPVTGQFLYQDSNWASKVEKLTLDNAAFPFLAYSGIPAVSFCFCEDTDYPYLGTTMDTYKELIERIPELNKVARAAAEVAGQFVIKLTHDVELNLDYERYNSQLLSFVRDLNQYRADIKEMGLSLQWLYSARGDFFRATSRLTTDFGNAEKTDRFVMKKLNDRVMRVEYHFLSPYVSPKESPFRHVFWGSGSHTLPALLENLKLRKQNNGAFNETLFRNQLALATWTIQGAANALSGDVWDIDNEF

| Kd [nM] | koff [s⁻¹] | kon [M⁻¹ s⁻¹] | Binder |
| --- | --- | --- | --- |
| 0.00231 | 1.81e-06 | 784000 | B1 |
| 0.00527 | 4.17e-06 | 791000 | B2 |
| 0.00851 | 6.13e-06 | 720000 | B3 |
| 0.0131 | 9.14e-06 | 697000 | B4 |

Each binder was assayed against T1, TfR2 (transferrin receptor 2) (assay: A450 plate assay on TfR2 (method not described in the text)).

| binding result | Binder |
| --- | --- |
| no binding (tested: 1000 nM) | B1 |
| no binding (tested: 1000 nM) | B2 |
| no binding (tested: 1000 nM) | B3 |
| no binding (tested: 1000 nM) | B4 |

These binders were tested against T3, recombinant human transferrin receptor protein (Sino Biological 11020-H07H) (human, UniProt P02786 89-760) (assay: ELISA on plate-coated recombinant human TfR1 (CD71); fit: specific binding with Hill slope (row labels blank in the lower block; row taken by the order Bmax, h, Kd)).
T3 construct: Bought protein coated on ELISA plates; also called recombinant human TfR1; human TfR1
Method: (§1) Half-well high-binding 96-well plates (Costar #3690) were coated with recombinant human transferrin receptor protein (Sino Biological 11020-H07H) or recombinant cyno transferrin receptor protein (Sino Biological 90253-C07H) at 1 ng/μL in PBS (Gibco 14190) and incubated overnight at 4° C. Plates were washed four times with 100 μL of Tris buffered saline+Tween (20×TBST, Cell Signaling 9997S). 100 μL of Superblock (ThermoFisher PI-37535) was added to each well and incubated for 1 hour at room temperature. The wash step was repeated before the addition of the samples. Samples were added at concentrations up to 10 nM, 50 μL/well. Plates were incubated for another hour at room temp and wash step repeated. Secondary antibody (Peroxidase AffiniPure Goat Anti-Human IgG, Fcγ Fragment Specific, Jackson Immunoresearch, 109-035-098) was diluted 1:5000 in Superblock and 50 μL/well added. Plates were incubated for 1 hour at room temperature and washed one more time. Binding was measured by the addition of 50 μL of 1-Step™ Ultra TMB-ELISA (ThermoFisher, 34028), incubated for 5 minutes, and the reaction was stopped with the addition of 25 μL of Stop Solution 2N sulfuric Acid (R&D Systems DY994). Absorbance was measured at 450 nm, with reference wavelength 570 nm subtracted. Binding constants were determined using GraphPad Prism Specific Binding with Hill Slope.

T3 sequence (P02786 89-760 limits assumed): as above

| Bmax [% max binding] | Kd [nM] | h | Binder |
| --- | --- | --- | --- |
| 95.2 | 0.00823 | 1.57 | B1 |
| 93.8 | 0.012 | 1.56 | B2 |
| 95.3 | 0.00713 | 1.29 | B3 |
| 93.7 | 0.00987 | 1.25 | B4 |

These binders were tested against T4, recombinant cyno transferrin receptor protein (Sino Biological 90253-C07H) (cyno, UniProt H9EXL1 89-760 (rhesus entry)) (assay: ELISA on plate-coated recombinant cyno TfR1 (CD71); fit: specific binding with Hill slope).
T4 construct: Bought protein coated on ELISA plates; also called recombinant cyno TfR1; cynoTfR1
Method: as §1

T4 sequence (chain, as listed by the source C07H C07H): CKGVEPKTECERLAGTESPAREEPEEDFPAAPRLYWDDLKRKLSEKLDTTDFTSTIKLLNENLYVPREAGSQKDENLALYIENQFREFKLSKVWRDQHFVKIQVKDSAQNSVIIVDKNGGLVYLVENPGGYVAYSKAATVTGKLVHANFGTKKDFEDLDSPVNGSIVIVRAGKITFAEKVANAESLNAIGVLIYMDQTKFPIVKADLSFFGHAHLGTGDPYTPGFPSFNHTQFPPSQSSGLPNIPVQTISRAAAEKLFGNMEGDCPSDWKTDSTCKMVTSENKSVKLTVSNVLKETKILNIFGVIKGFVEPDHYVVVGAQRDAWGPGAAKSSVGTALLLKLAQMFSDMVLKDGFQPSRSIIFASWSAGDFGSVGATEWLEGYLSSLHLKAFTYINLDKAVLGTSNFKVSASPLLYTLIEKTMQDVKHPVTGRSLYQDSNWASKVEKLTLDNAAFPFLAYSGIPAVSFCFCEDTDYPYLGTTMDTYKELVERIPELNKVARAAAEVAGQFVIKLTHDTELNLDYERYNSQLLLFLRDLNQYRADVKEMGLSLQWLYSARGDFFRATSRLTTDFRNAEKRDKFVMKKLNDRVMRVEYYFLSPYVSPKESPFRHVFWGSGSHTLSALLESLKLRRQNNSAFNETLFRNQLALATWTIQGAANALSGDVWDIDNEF

| Bmax [% max binding] | Kd [nM] | h | Binder |
| --- | --- | --- | --- |
| 94.3 | 0.0114 | 1.74 | B1 |
| 94 | 0.0137 | 1.74 | B2 |
| 94.2 | 0.0125 | 1.55 | B3 |
| 94.4 | 0.018 | 1.53 | B4 |

The binders below were run against T2, hTfR (human transferrin receptor, …) (assay: ELISA, biotinylated antibody on hTfR captured by plate-coated human holo-transferrin (Tf+TfR); fit: specific binding with Hill slope).
Method: (§2) Antibodies were biotinylated using 50 fold molar excess of EZ-Link No weigh NHS-Biotin (Thermo Scientific A39256) following manufacturer's instructions. Half-well high-bind plates (Costar #3690) were coated with 500 ng/mL purified human holo-transferrin (R&D Systems 2914-HT) in PBS at 4° C. overnight. For comparison, plates were coated directly with hTfR. Plates were washed four times with 100 μL of Tris buffered saline+Tween (20×TBST, Cell Signaling 9997S). 100 μL of Superblock (ThermoFisher PI-37535) was added to each well and incubated for 1 hour at room temperature. The wash step was repeated before the addition of the hTfR (200 ng/mL in 25 μl) to the transferrin plates, or Superblock to the hTfR plates, and incubated for 30 minutes. Biotinylated antibodies were diluted to 20 nM for the high concentration and added to the plates with 3-fold serial dilution. 25 μl/well was added to the 25 μl already in the plate. Plates were incubated for 1 hour, and wash step was repeated. Streptavidin-HRP (R&D Systems DY998) was added following recommended dilution on the package insert, and a final wash step was done. Binding was measured by the addition of 50 μL of 1-Step™ Ultra TMB-ELISA (ThermoFisher, 34028), incubated for 5 minutes, and the reaction was stopped with the addition of 25 μL of Stop Solution 2N sulfuric Acid (R&D Systems DY994). Absorbance was measured at 450 nm, with reference wavelength 570 nm subtracted. Binding constants were determined using GraphPad Prism Specific Binding with Hill Slope. Change in antibody binding constants in the presence versus absense of transferrin is considered relative to the commercially available antibody which is known to have an overlapping epitope with transferrin (AF2474, R&D Systems).

| Bmax [A450] | Kd [nM] | h | Binder |
| --- | --- | --- | --- |
| 3.51 | 0.057 | 1.48 | B1 |
| 3.53 | 0.0546 | 1.49 | B2 |
| 3.47 | 0.0619 | 1.56 | B3 |
| 3.52 | 0.0849 | 1.46 | B4 |

These binders were tested against T2, hTfR (human transferrin receptor, …) (assay: ELISA; ratio of the Kd on HFE-captured hTfR to the Kd on directly coated hTfR).

| Kd(HFE+TfR)/Kd(TfR) | Binder |
| --- | --- |
| 10.4 | B1 |
| 11.4 | B2 |
| 8.5 | B3 |
| 10.2 | B4 |

Each binder was assayed against T2, hTfR (human transferrin receptor, …) (assay: ELISA, biotinylated antibody on hTfR captured by plate-coated HFE (HFE+TfR); fit: specific binding with Hill slope).

| Bmax [A450] | Kd [nM] | h | Binder |
| --- | --- | --- | --- |
| 3 | 0.229 | 1.36 | B1 |
| 3.14 | 0.248 | 1.38 | B2 |
| 2.7 | 0.182 | 1.65 | B3 |
| 2.79 | 0.346 | 1.28 | B4 |

The binders below were run against T2, hTfR (human transferrin receptor, …) (assay: ELISA; ratio of the Kd on transferrin-captured hTfR to the Kd on directly coated hTfR).
Method: as §2

| Kd(Tf+TfR)/Kd(TfR) | Binder |
| --- | --- |
| 2.6 | B1 |
| 2.5 | B2 |
| 2.9 | B3 |
| 2.5 | B4 |
